According to article PMC11787620 (iScience, 2025):

B1: LexAPa^CTD G91D (LexAPa C-terminal domain, Gly81 to Arg204, with the inactivating G91D mutation on the cleavage site) (domain or fragment, Pseudomonas aeruginosa (ATCC 27853), UniProt P37452 81-204, looked up)
chain: GLPVIGRVAADAPILAEQNIEESCRINPAFFNPRADYLLRVRGMSMKDIGILDGDLLAVHVTREARNGQVVVARIGEEVTVKRFKREGSKVWLLAENPEFAPIEVDLKEQELIIEGLSVGVIRR
B2: LexAPaS125A (full-length P. aeruginosa LexA carrying the S125A mutation in the catalytic dyad) (natural protein, Pseudomonas aeruginosa (ATCC 27853), UniProt P37452 1-204, looked up)
chain: MQKLTPRQAEILSFIKRCLEDHGFPPTRAEIAQELGFKSPNAAEEHLKALARKGAIEMTPGASRGIRIPGFEPHAANDDEGLPVIGRVAAGAPILAEQNIEESCRINPAFFNPRADYLLRVRGMAMKDIGILDGDLLAVHVTREARNGQVVVARIGEEVTVKRFKREGSKVWLLAENPEFAPIEVDLKEQELIIEGLSVGVIRR

Target: the molecule itself
Assay: SEC

Row | Protein | stoichiometry N
1 | B1 | 2
2 | B2 | 2
